Measured values from US20050059089A1 (priority 2003, published 2005).
Where two headings read alike, the source gives them in different places.

Tests used:
GPCR142 [1] = target: T1, GPCR142 (Homo sapiens, UniProt Q8TDU9, L329S); assay: Ca2+ mobilization assay, 293 cells co-expressing GPCR142 and Gqi5; type: cell-based; design: The complete coding region of human GPCR142 was PCR-amplified from human genomic DNA; expressed in transfected cells; HEK293 co-transfected with Gqi5 (Ca2+)
Experimental: (§1) Human embryonic kidney (HEK) 293 cells were transfected with GPCR135,.GPCR142 or co-transfected with Gqi5 (Conklin et al. (1993), Nature 363, 274-280) or Gα16 (Amatruda et al. (1991), Proc. Natl. Acad. Sci. U.S.A. 88, 5587-5591) expressing plasmids using LipofectAmine. Two days after transfection, cells were detached with PBS plus 10 mM EDTA. The detached cells were washed with DMEM-F12 medium (without phenol red, Invitrogen) and seeded in black poly-D lysine coated 96-well plates (BD Biosciences, San Jose, Calif.) at a cell density of 50,000 cell/well.

GPCR142 [2] = target: T1, GPCR142; assay: Inhibition of forskolin-stimulated cAMP (CRE-β-galactosidase) in SK-N-MC cells; type: cell-based; design: The complete coding region of human GPCR142 was PCR-amplified from human genomic DNA; expressed in transfected cells; HEK293 co-transfected with Gqi5 (Ca2+); settings: SK-N-MC cells stably expressing GPCR142
Experimental: (§2) SK-N-MC cells stably expressing GPCR142 were established by transfection of GPCR142 expressing plasmids into SK-N-MC cells harboring a β-galactosidase gene under control of multiple cAMP responsive elements. The stable transfectants were selected by culturing the transfected cells under G418 selection (400 mg/L). The receptor expressing cells were seeded in 96-well plates at a cell density of 30,000 cells/well. After 24 h, cells were stimulated with forskolin or different peptides. Cells were cultured for an additional 6 h and the intracellular β-gal activity, which represents the intracellular cAMP accumulation, was measured as described by Liu et al. (2000), Mol. Pharmacol., 59, 420-426.

GPCR135 = target: T2, GPCR135 (Homo sapiens, UniProt Q9NSD7); assay: as above; type: cell-based; design: expressed in transfected cells; settings: SK-N-MC cells stably expressing GPCR135
T2 sequence (Q9NSD7 1-469): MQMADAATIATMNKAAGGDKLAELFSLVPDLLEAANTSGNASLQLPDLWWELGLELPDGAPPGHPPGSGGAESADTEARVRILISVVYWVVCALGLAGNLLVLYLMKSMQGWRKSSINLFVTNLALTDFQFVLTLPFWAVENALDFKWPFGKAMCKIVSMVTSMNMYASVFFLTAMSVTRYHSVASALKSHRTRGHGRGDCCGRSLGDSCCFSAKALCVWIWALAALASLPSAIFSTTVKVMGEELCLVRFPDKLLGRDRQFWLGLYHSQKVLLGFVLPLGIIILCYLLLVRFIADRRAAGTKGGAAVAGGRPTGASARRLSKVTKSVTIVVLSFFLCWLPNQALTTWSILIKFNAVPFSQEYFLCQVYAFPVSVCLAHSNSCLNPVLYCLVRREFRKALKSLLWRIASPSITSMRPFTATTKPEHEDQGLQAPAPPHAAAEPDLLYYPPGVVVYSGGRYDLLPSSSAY
Experimental: as §2
The same experiment was performed using GPCR135.

GPCR142 [3] = target: T1, GPCR142; assay: Radioligand binding assay with 125I-relaxin3 (saturation and competition), COS-7 cell membranes; design: The complete coding region of human GPCR142 was PCR-amplified from human genomic DNA; expressed in transfected cells; settings: competition binding, COS-7 membranes; listed as unlabeled relaxin3
Experimental: The binding mixtures were incubated at room temperature for 1 h and then were filtered through 96-well GFC plates (Packard) and washed with ice-cold washing buffer: 50 mM Tris-HCl, pH 7.4. Fifty microliters of Microscint-40 were added to each well and the plates were counted in a Topcounter NTX (Packard). The radioligand binding results were analyzed using GraphPad PRISM software.
The binding assays were performed at room temperature for an incubation time of one hour. The binding mixtures were then filtered through GFC filters pre-saturated with 0.3 polyethylenimine (Sigma) and washed with cold binding buffer. The bound radioligand was counted in a top counter (TopCount/NTX, Packard) with Microscint-40. The results were analyzed by Prism 3.0 software.

[4] = system: HEK293 cells transfected by Gα16 alone; assay: Ca2+ mobilization assay, HEK293 cells transfected by Gα16 alone; type: cell-based, human; settings: cells expressing Gα16 alone (no receptor)
Experimental: as §1

mouse GPCR142 = target: T3, mouse GPCR142 (Mus musculus, UniProt Q7TQP4); assay: Ca2+ mobilization assay, mouse GPCR142 and Gα16; type: cell-based; settings: cells expressing mouse GPCR142 and Gα16
T3 construct: The complete coding region of the mouse GPCR142 was deposited in GenBank; expressed in transfected cells; CHO membranes (GTPγS, by the general protocol); HEK293 with Gα16 (Ca2+)
T3 sequence (Q7TQP4 1-414): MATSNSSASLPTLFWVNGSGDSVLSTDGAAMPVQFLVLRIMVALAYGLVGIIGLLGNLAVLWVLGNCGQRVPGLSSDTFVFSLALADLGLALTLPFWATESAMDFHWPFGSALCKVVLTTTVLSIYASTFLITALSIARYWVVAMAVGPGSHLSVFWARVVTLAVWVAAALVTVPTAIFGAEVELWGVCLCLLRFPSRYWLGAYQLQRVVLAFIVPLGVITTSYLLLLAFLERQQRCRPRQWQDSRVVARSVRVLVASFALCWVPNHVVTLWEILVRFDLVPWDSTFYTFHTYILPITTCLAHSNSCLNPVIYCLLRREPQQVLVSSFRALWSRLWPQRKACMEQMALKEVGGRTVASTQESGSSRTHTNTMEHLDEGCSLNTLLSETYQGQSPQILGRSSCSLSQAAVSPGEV
Experimental: as §1

T1 sequence (Q8TDU9 whole entry L329S): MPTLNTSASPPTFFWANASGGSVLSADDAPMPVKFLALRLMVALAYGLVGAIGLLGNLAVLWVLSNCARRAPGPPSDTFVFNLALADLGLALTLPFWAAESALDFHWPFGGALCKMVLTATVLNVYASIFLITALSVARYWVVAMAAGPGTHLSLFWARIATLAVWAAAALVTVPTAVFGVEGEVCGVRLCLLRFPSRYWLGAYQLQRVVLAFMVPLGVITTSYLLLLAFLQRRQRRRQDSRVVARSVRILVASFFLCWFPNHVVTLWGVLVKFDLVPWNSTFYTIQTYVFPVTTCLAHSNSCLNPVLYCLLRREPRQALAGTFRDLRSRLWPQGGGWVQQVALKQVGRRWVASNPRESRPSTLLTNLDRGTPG

relaxin3: Human relaxin3 (SEQ ID NO: 6), produced recombinantly; mature peptide of A- and B-chain linked by disulfide bridges
stimulation of Ca2+ signaling (GPCR142 [1]): No relaxin3-stimulated Ca^2+ signaling was observed
stimulation of Ca2+ signaling (GPCR142 [1]; listed as Relaxin3): does not stimulate any detectable Ca^2+ signal
inhibition of forskolin induced β-galactosidase expression (GPCR142 [2]): dose-dependently inhibits
inhibition of forskolin induced β-galactosidase expression (GPCR135): dose-dependently inhibits
displacement of 125I-relaxin3 binding to GPCR142 (GPCR142 [3]): specifically displaced
stimulation of Ca2+ mobilization [4]: did not respond
Ca2+ response (mouse GPCR142): did not stimulate detectable Ca^2+ response
